Measured values taken from article PMC11070986 (Nature, 2024).

Biological target: the molecule itself
Assay: cryo-EM structure

B1: human VMAT1(ΔL1/2) (natural protein, UniProt P54219 1-525, looked up)
chain: MLRTILDAPQRLLKEGRASRQLVLVVVFVALLLDNMLFTVVVPIVPTFLYDMEFKEVNSSLHLGHAGSNCLQGTGFLEEEITRVGVLFASKAVMQLLVNPFVGPLTNRIGYHIPMFAGFVIMFLSTVMFAFSGTYTLLFVARTLQGIGSSFSSVAGLGMLASVYTDDHERGRAMGTALGGLALGLLVGAPFGSVMYEFVGKSAPFLILAFLALLDGALQLCILQPSKVSPESAKGTPLFMLLKDPYILVAAGSICFANMGVAILEPTLPIWMMQTMCSPKWQLGLAFLPASVSYLIGTNLFGVLANKMGRWLCSLIGMLVVGTSLLCVPLAHNIFGLIGPNAGLGLAIGMVDSSMMPIMGHLVDLRHTSVYGSVYAIADVAFCMGFAIGPSTGGAIVKAIGFPWLMVITGVINIVYAPLCYYLRSPPAKEEKLAILSQDCPMETRMYATQKPTKEFPLGEDSDEEPDHEE
stoichiometry N: 2
